Measurements: patent EP4806922A2 (Lyvgen Biopharma Holdings Limited, dated 2026)

B1: Ly2949 (BCMA/CD3/CD137) (other)
heavy 1: QVQLVQSGAEVKKPGASVKVSCKASGYTFTNHIIHWVRQAPGQGLEWMGYINPYPGYHAYNEKFQGRATMTSDTSTSTVYMELSSLRSEDTAVYYCARDGYYRDTDVLDYWGQGTLVTVSSASTKGPSVFPLAPSSKSTSGGTAALGCLVKDYFPEPVTVSWNSGALTSGVHTFPAVLQSSGLYSLSSVVTVPSSSLGTQTYICNVNHKPSNTKVDKKVEPKSCGGGGSGGGGSGGGGSGGGGSEVQLVESGGGLVQPGGSLRLSCAASGFTFSTYAMNWVRQAPGKGLEWVGRIRSKYNNYATYYADSVKGRFTISRDDSKNSLYLQMNSLKTEDTAVYYCVRHGNFGNSYVSWFAYWGQGTLVTVSSGGGGSDKTHTCPPCPAPELLGPSVFLFPPKPKDTLMISRTPEVTCVVVDVSHEDPEVKFNWYVDGVEVHNAKTKPREEQYNSTYRVVSVLTVLHQDWLNGKEYKCKVSNKALGAPIEKTISKAKGQPREPQVYTLPPSREEMTKNQVSLWCLVKGFYPSDIAVEWESNGQPENNYKTTPPVLDSDGSFFLYSKLTVDKSRWQQGNVFSCSVMHEALHNHYTQKSLSLSPGKGGGGSGGGGSGGGGSGGGGSQVQLVQSGAEVKKPGASVKVSCKASGYTFAGFEMHWVRQAPGQGLEWMGAIDPKTGGTDYNQKFKDRVTMTRDTSISTAYMELSRLRSDDTAVYYCARDLGYFDVWGQGTLVTVSS
heavy 2: QVQLVQSGAEVKKPGASVKVSCKASGYTFTNHIIHWVRQAPGQGLEWMGYINPYPGYHAYNEKFQGRATMTSDTSTSTVYMELSSLRSEDTAVYYCARDGYYRDTDVLDYWGQGTLVTVSSASTKGPSVFPLAPSSKSTSGGTAALGCLVKDYFPEPVTVSWNSGALTSGVHTFPAVLQSSGLYSLSSVVTVPSSSLGTQTYICNVNHKPSNTKVDKKVEPKSCGGGGSGGGGSGGGGSGGGGSQAVVTQEPSLTVSPGGTVTLTCRSSTGAVTTSNYANWVQQKPGQAPRGLIGGTNKRAPWTPARFSGSLLGGKAALTITGAQAEDEADYYCALWYSNLWVFGGGTKLTVLGGGGSDKTHTCPPCPAPELLGPSVFLFPPKPKDTLMISRTPEVTCVVVDVSHEDPEVKFNWYVDGVEVHNAKTKPREEQYNSTYRVVSVLTVLHQDWLNGKEYKCKVSNKALGAPIEKTISKAKGQPREPQVYTLPPSREEMTKNQVSLSCAVKGFYPSDIAVEWESNGQPENNYKTTPPVLDSDGSFFLVSKLTVDKSRWQQGNVFSCSVMHEALHNRFTQKSLSLSPGKGGGGSGGGGSGGGGSGGGGSDIQMTQSPSSLSASVGDRVTITCRASQDIRSNLNWYQQKPGGAVKLLIYYTSRLHSGVPSRFSGSGSGTDYTLTISSLQPEDFATYFCQQSEKLPRTFGGGTKVEIR
light: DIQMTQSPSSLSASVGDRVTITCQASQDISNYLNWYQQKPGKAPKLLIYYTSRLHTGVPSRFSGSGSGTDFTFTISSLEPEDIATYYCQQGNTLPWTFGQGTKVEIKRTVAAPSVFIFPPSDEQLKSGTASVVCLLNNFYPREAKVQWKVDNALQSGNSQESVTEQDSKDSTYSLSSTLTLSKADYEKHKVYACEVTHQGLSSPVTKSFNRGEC
notes: Multi-specific (tri-specific) antibody with three different chains HC1, HC2, LC1; also called BCMA(a) /CD3 /CD137; anti-BCMA/CD3/CD137 multi-specific antibody
B2: Ly3096 (BCMA/CD3/CD137) (other)
heavy 1: QLQLQESGPGLVKPSETLSLTCTVSGGSISSGSYFWGWIRQPPGKGLEWIGSIYYSGITYYNPSLKSRVTISVDTSKNQFSLKLSSVTAADTAVYYCARHDGAVAGLFDYWGQGTLVTVSSASTKGPSVFPLAPSSKSTSGGTAALGCLVKDYFPEPVTVSWNSGALTSGVHTFPAVLQSSGLYSLSSVVTVPSSSLGTQTYICNVNHKPSNTKVDKKVEPKSCGGGGSGGGGSGGGGSGGGGSEVQLVESGGGLVQPGGSLRLSCAASGFTFSTYAMNWVRQAPGKGLEWVGRIRSKYNNYATYYADSVKGRFTISRDDSKNSLYLQMNSLKTEDTAVYYCVRHGNFGNSYVSWFAYWGQGTLVTVSSGGGGSDKTHTCPPCPAPELLGPSVFLFPPKPKDTLMISRTPEVTCVVVDVSHEDPEVKFNWYVDGVEVHNAKTKPREEQYNSTYRVVSVLTVLHQDWLNGKEYKCKVSNKALGAPIEKTISKAKGQPREPQVYTLPPSREEMTKNQVSLWCLVKGFYPSDIAVEWESNGQPENNYKTTPPVLDSDGSFFLYSKLTVDKSRWQQGNVFSCSVMHEALHNHYTQKSLSLSPGKGGGGSGGGGSGGGGSGGGGSQVQLVQSGAEVKKPGASVKVSCKASGYTFAGFEMHWVRQAPGQGLEWMGAIDPKTGGTDYNQKFKDRVTMTRDTSISTAYMELSRLRSDDTAVYYCARDLGYFDVWGQGTLVTVSS
heavy 2: QLQLQESGPGLVKPSETLSLTCTVSGGSISSGSYFWGWIRQPPGKGLEWIGSIYYSGITYYNPSLKSRVTISVDTSKNQFSLKLSSVTAADTAVYYCARHDGAVAGLFDYWGQGTLVTVSSASTKGPSVFPLAPSSKSTSGGTAALGCLVKDYFPEPVTVSWNSGALTSGVHTFPAVLQSSGLYSLSSVVTVPSSSLGTQTYICNVNHKPSNTKVDKKVEPKSCGGGGSGGGGSGGGGSGGGGSQAVVTQEPSLTVSPGGTVTLTCRSSTGAVTTSNYANWVQQKPGQAPRGLIGGTNKRAPWTPARFSGSLLGGKAALTITGAQAEDEADYYCALWYSNLWVFGGGTKLTVLGGGGSDKTHTCPPCPAPELLGPSVFLFPPKPKDTLMISRTPEVTCVVVDVSHEDPEVKFNWYVDGVEVHNAKTKPREEQYNSTYRVVSVLTVLHQDWLNGKEYKCKVSNKALGAPIEKTISKAKGQPREPQVYTLPPSREEMTKNQVSLSCAVKGFYPSDIAVEWESNGQPENNYKTTPPVLDSDGSFFLVSKLTVDKSRWQQGNVFSCSVMHEALHNRFTQKSLSLSPGKGGGGSGGGGSGGGGSGGGGSDIQMTQSPSSLSASVGDRVTITCRASQDIRSNLNWYQQKPGGAVKLLIYYTSRLHSGVPSRFSGSGSGTDYTLTISSLQPEDFATYFCQQSEKLPRTFGGGTKVEIR
light: SYVLTQPPSVSVAPGQTARITCGGNNIGSKSVHWYQQPPGQAPVVVVYDDSDRPSGIPERFSGSNSGNTATLTISRVEAGDEAVYYCQVWDSSSDHVVFGGGTKLTVLGQPKAAPSVTLFPPSSEELQANKATLVCLISDFYPGAVTVAWKGDSSPVKAGVETTTPSKQSNNKYAASSYLSLTPEQWKSHRSYSCQVTHEGSTVEKTVAPTECS
notes: Multi-specific (tri-specific) antibody with three different chains HC1, HC2, LC1; also called BCMA(b) /CD3 /CD137
B3: Ly3106 (BCMA/CD3/PD-L1) (other)
heavy 1: QLQLQESGPGLVKPSETLSLTCTVSGGSISSGSYFWGWIRQPPGKGLEWIGSIYYSGITYYNPSLKSRVTISVDTSKNQFSLKLSSVTAADTAVYYCARHDGAVAGLFDYWGQGTLVTVSSASTKGPSVFPLAPSSKSTSGGTAALGCLVKDYFPEPVTVSWNSGALTSGVHTFPAVLQSSGLYSLSSVVTVPSSSLGTQTYICNVNHKPSNTKVDKKVEPKSCGGGGSGGGGSGGGGSGGGGSEVQLVESGGGLVQPGGSLRLSCAASGFTFSTYAMNWVRQAPGKGLEWVGRIRSKYNNYATYYADSVKGRFTISRDDSKNSLYLQMNSLKTEDTAVYYCVRHGNFGNSYVSWFAYWGQGTLVTVSSGGGGSDKTHTCPPCPAPELLGPSVFLFPPKPKDTLMISRTPEVTCVVVDVSHEDPEVKFNWYVDGVEVHNAKTKPREEQYNSTYRVVSVLTVLHQDWLNGKEYKCKVSNKALGAPIEKTISKAKGQPREPQVYTLPPSREEMTKNQVSLWCLVKGFYPSDIAVEWESNGQPENNYKTTPPVLDSDGSFFLYSKLTVDKSRWQQGNVFSCSVMHEALHNHYTQKSLSLSPGKGGGGSGGGGSGGGGSGGGGSQVQLVQSGAEVKKPGASVKVSCKASGYTFTDFWMSWVRQAPGQGLEWMGQIYPNTGTTHSNEKFKGRVTMTRDTSTSTVYMELSSLRSEDTAVYYCARSYHISTTPNWFAYWGQGTLVTVSS
heavy 2: QLQLQESGPGLVKPSETLSLTCTVSGGSISSGSYFWGWIRQPPGKGLEWIGSIYYSGITYYNPSLKSRVTISVDTSKNQFSLKLSSVTAADTAVYYCARHDGAVAGLFDYWGQGTLVTVSSASTKGPSVFPLAPSSKSTSGGTAALGCLVKDYFPEPVTVSWNSGALTSGVHTFPAVLQSSGLYSLSSVVTVPSSSLGTQTYICNVNHKPSNTKVDKKVEPKSCGGGGSGGGGSGGGGSGGGGSQAVVTQEPSLTVSPGGTVTLTCRSSTGAVTTSNYANWVQQKPGQAPRGLIGGTNKRAPWTPARFSGSLLGGKAALTITGAQAEDEADYYCALWYSNLWVFGGGTKLTVLGGGGSDKTHTCPPCPAPELLGPSVFLFPPKPKDTLMISRTPEVTCVVVDVSHEDPEVKFNWYVDGVEVHNAKTKPREEQYNSTYRVVSVLTVLHQDWLNGKEYKCKVSNKALGAPIEKTISKAKGQPREPQVYTLPPSREEMTKNQVSLSCAVKGFYPSDIAVEWESNGQPENNYKTTPPVLDSDGSFFLVSKLTVDKSRWQQGNVFSCSVMHEALHNRFTQKSLSLSPGKGGGGSGGGGSGGGGSGGGGSDIQMTQSPSSLSASVGDRVTITCKASQNVYKKLEWYQQKPGKVPKVLIYHTNILQTGVPSRFSGSGSGTDYTLTISSLQPEDVATYYCYQWNSGPTFGGGTKVEIK
light: SYVLTQPPSVSVAPGQTARITCGGNNIGSKSVHWYQQPPGQAPVVVVYDDSDRPSGIPERFSGSNSGNTATLTISRVEAGDEAVYYCQVWDSSSDHVVFGGGTKLTVLGQPKAAPSVTLFPPSSEELQANKATLVCLISDFYPGAVTVAWKGDSSPVKAGVETTTPSKQSNNKYAASSYLSLTPEQWKSHRSYSCQVTHEGSTVEKTVAPTECS
notes: Multi-specific (tri-specific) antibody with three different chains HC1, HC2, LC1; also called BCMA(b) /CD3 /PD-L1

Assays:
Test in all cases: FCM or ELISA, graded summary
[1] = target: T1, human CD3D/E protein (human, UniProt P04234 22-105; P07766 23-126)
T1 construct: also called human CD3 expressing Jurkat cells

[2] = target: T2, human CD137 protein (human, UniProt Q07011 24-186)
T2 construct: also called human CD137 expressing CHO cells

[3] = target: T3, human BCMA protein (human, UniProt Q02223 1-54)
T3 construct: also called human BCMA expressing NCI-H929 cells; human BCMA overexpressing HEK293 cells
T3 sequence (looked up): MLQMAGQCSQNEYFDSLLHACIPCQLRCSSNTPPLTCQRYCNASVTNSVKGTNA

[4] = target: human PD-L1 protein (human, UniProt Q9NZQ7 19-238)
human PD-L1 protein, sequence (Q9NZQ7 19-238 limits assumed): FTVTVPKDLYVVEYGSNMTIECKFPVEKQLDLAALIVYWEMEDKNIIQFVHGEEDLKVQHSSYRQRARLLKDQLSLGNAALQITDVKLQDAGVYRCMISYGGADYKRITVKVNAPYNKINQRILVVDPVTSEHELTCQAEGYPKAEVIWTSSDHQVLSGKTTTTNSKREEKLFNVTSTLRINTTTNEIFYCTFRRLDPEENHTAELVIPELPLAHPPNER

T1 sequence (P04234 22-105, chain 1 of 2): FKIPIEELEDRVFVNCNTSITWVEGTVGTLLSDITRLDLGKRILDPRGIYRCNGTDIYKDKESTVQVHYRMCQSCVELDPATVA
T1 sequence (P07766 23-126, chain 2 of 2): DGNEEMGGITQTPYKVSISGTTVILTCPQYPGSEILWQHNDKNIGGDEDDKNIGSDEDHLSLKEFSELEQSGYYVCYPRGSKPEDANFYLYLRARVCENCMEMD
T2 sequence (Q07011 24-186 limits assumed): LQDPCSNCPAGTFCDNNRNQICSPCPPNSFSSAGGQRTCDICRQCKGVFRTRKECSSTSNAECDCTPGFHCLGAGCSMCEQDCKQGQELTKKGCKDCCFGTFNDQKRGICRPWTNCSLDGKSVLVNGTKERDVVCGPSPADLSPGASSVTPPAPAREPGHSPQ

Binder | binding result [1] | binding result [2] | binding result [3] | binding result [4]
B1 | binds | binds | binds | –
B2 | binds | binds | – | –
B3 | binds | – | – | binds
